Results reported in FireProtDB (doi:10.1021/bi010565n).

B1: Guanyl-specific ribonuclease T1, P00651 (parent)
chain: MMYSKLLTLTTLLLPTALALPSLVERACDYTCGSNCYSSSDVSTAQAAGYQLHEDGETVGSNSYPHKYNNYEGFDFSVSSPYYEWPILSSGDVYSGGSPGADRVVFNENNQLAGVITHTGASGNNFVECT

Variants of: B1
Settings: Aspergillus oryzae (strain ATCC 42149 / RIB 40); pH 7; 25 °C; Thermal; DSC; MOPS 30 mM; reversible: yes(1.03); structure 1RN1; whole UniProt chain shown

| Variant | ddG of mutation (higher = less stable) [kcal/mol] | heat capacity change of unfolding [kcal/mol/K] |
| --- | --- | --- |
| V42S | 4.71 | 1.29 |

Same assay, conditions: Aspergillus oryzae (strain ATCC 42149 / RIB 40); pH 7; 25 °C; Urea; CD; MOPS 30 mM; reversible: yes(1.03); structure 1RN1; whole UniProt chain shown

| Variant | ddG of mutation (higher = less stable) [kcal/mol] |
| --- | --- |
| V42S | 4.66 |

Same assay, conditions: Aspergillus oryzae (strain ATCC 42149 / RIB 40); pH 7; Thermal; CD; MOPS 30 mM; reversible: yes(1.03); structure 1RN1; whole UniProt chain shown

| Variant | Tm [°C] | change of melting temperature, mutant - wild type (higher = more stable) [°C] |
| --- | --- | --- |
| V42S | 35.6 | -15.6 |

Same assay, conditions: Aspergillus oryzae (strain ATCC 42149 / RIB 40); pH 7; Thermal; DSC; MOPS 30 mM; reversible: yes(1.03); structure 1RN1; whole UniProt chain shown

| Variant | Tm [°C] | change of melting temperature, mutant - wild type (higher = more stable) [°C] |
| --- | --- | --- |
| V42S | 36.9 | -14.6 |

Same assay, conditions: Aspergillus oryzae (strain ATCC 42149 / RIB 40); pH 7; 25 °C; Thermal; DSC; MOPS 30 mM; reversible: yes(0.18); structure 1RN1; whole UniProt chain shown

| Variant | ddG of mutation (higher = less stable) [kcal/mol] | heat capacity change of unfolding [kcal/mol/K] |
| --- | --- | --- |
| V42C | 4.68 | 1.29 |

Same assay, conditions: Aspergillus oryzae (strain ATCC 42149 / RIB 40); pH 7; 25 °C; Urea; CD; MOPS 30 mM; reversible: yes(0.18); structure 1RN1; whole UniProt chain shown

| Variant | ddG of mutation (higher = less stable) [kcal/mol] |
| --- | --- |
| V42C | 5.3 |

Same assay, conditions: Aspergillus oryzae (strain ATCC 42149 / RIB 40); pH 7; Thermal; CD; MOPS 30 mM; reversible: yes(0.18); structure 1RN1; whole UniProt chain shown

| Variant | Tm [°C] | change of melting temperature, mutant - wild type (higher = more stable) [°C] |
| --- | --- | --- |
| V42C | 41.6 | -9.6 |

Same assay, conditions: Aspergillus oryzae (strain ATCC 42149 / RIB 40); pH 7; Thermal; DSC; MOPS 30 mM; reversible: yes(0.18); structure 1RN1; whole UniProt chain shown

| Variant | Tm [°C] | change of melting temperature, mutant - wild type (higher = more stable) [°C] |
| --- | --- | --- |
| V42C | 42.6 | -8.9 |

Same assay, conditions: Aspergillus oryzae (strain ATCC 42149 / RIB 40); pH 7; 25 °C; Thermal; DSC; MOPS 30 mM; reversible: yes(1.04); structure 1RN1; whole UniProt chain shown

| Variant | ddG of mutation (higher = less stable) [kcal/mol] | heat capacity change of unfolding [kcal/mol/K] |
| --- | --- | --- |
| V42T | 4.1 | 1.29 |

Same assay, conditions: Aspergillus oryzae (strain ATCC 42149 / RIB 40); pH 7; 25 °C; Urea; CD; MOPS 30 mM; reversible: yes(1.04); structure 1RN1; whole UniProt chain shown

| Variant | ddG of mutation (higher = less stable) [kcal/mol] |
| --- | --- |
| V42T | 3.2 |

Same assay, conditions: Aspergillus oryzae (strain ATCC 42149 / RIB 40); pH 7; Thermal; DSC; MOPS 30 mM; reversible: yes(1.04); structure 1RN1; whole UniProt chain shown

| Variant | Tm [°C] | change of melting temperature, mutant - wild type (higher = more stable) [°C] |
| --- | --- | --- |
| V42T | 42.1 | -9.4 |

Same assay, conditions: Aspergillus oryzae (strain ATCC 42149 / RIB 40); pH 7; 25 °C; Thermal; DSC; MOPS 30 mM; reversible: yes(0.98); structure 1RN1; whole UniProt chain shown

| Variant | ddG of mutation (higher = less stable) [kcal/mol] | heat capacity change of unfolding [kcal/mol/K] |
| --- | --- | --- |
| V42A | 2.19 | 1.29 |
| V104T | 3.1 | 1.29 |

Same assay, conditions: Aspergillus oryzae (strain ATCC 42149 / RIB 40); pH 7; Thermal; CD; MOPS 30 mM; reversible: yes(0.98); structure 1RN1; whole UniProt chain shown

| Variant | Tm [°C] | change of melting temperature, mutant - wild type (higher = more stable) [°C] |
| --- | --- | --- |
| V42A | 43 | -8.2 |
| V104T | 41.4 | -9.8 |

Same assay, conditions: Aspergillus oryzae (strain ATCC 42149 / RIB 40); pH 7; Thermal; DSC; MOPS 30 mM; reversible: yes(0.98); structure 1RN1; whole UniProt chain shown

| Variant | Tm [°C] | change of melting temperature, mutant - wild type (higher = more stable) [°C] |
| --- | --- | --- |
| V42A | 44.5 | -7 |
| V104T | 40.2 | -11.3 |

Same assay, conditions: Aspergillus oryzae (strain ATCC 42149 / RIB 40); pH 7; 25 °C; Urea; CD; MOPS 30 mM; structure 1RN1; whole UniProt chain shown

| Variant | ddG of mutation (higher = less stable) [kcal/mol] |
| --- | --- |
| V115S | 4.87 |
| V115T | 3.07 |
| V115C | 3.54 |
| V104C | 3.67 |
| V104A | 4.08 |

Same assay, conditions: Aspergillus oryzae (strain ATCC 42149 / RIB 40); pH 7; Thermal; CD; MOPS 30 mM; structure 1RN1; whole UniProt chain shown

| Variant | Tm [°C] | change of melting temperature, mutant - wild type (higher = more stable) [°C] |
| --- | --- | --- |
| V115S | 29.6 | -21.6 |
| V115T | 38 | -13.2 |
| V115C | 46.3 | -4.9 |
| V104S | 34.6 | -16.6 |
| V104A | 43.3 | -7.9 |

Same assay, conditions: Aspergillus oryzae (strain ATCC 42149 / RIB 40); pH 7; 25 °C; Urea; CD; MOPS 30 mM; reversible: yes(0.98); structure 1RN1; whole UniProt chain shown

| Variant | ddG of mutation (higher = less stable) [kcal/mol] |
| --- | --- |
| V104T | 4.08 |
